How the values were obtained:
Test in all cases: cell_activity
[1] = system: Nme2-ABE8e-i1 (Neisseria meningitidis)
[2] = system: Nme2-ABE8e-i1 V106W V106W (in TadA8e) (Neisseria meningitidis)
[3] = system: Nme2-ABE8e-nt (Neisseria meningitidis)
[4] = up to, off-target A-to-G, mouse liver
[5] = A6 editing, mouse liver in vivo, N4CC PAM

Substance | activity [1, 4] [%] | activity [2, 4] [%] | activity ([3]; off-target A-to-G, mouse liver) [%] | activity [1, 5] [%] | activity [2, 5] [%] | activity [3, 5] [%]
Rosa26 sgRNA ; Rosa26-OT1 off-target | 7 | 5 | 0.2 |  |  | 
Rosa26 sgRNA ; Rosa26 target |  |  |  | 49 | 46 | 34

— patent US20240417707
